Test [1] concerns the target T1, human VEGFR on human umbilical vein endothelial cells (HUVECs) (human, UniProt P35968 20-1356).
T1 construct: The phosphorylation blots on these cells detect VEGFR2
Nature of the test: flow cytometry on HUVECs, soluble ligand titrated 3 h at 4 C, anti-FLAG-PE.
Method: Cells were incubated with various concentrations of hybrid PDGF/VEGF for 3 hours at 4° C. Binding was detected using an R-PE-conjugated anti-FLAG antibody, then analyzed by flow cytometry.

For test [2], the target named is T1, human VEGFR on human umbilical vein …. Nature of the test: flow cytometry on HUVECs, soluble ligand titrated. A general note: A flow cytometer gives signals particle by particle.
Test [3] shares this target. The test is described as follows: cell-based or functional assay.

Positions count from the first letter of the chain named. Numbers in names are those of the source.

T1 sequence (P35968 20-1356 limits assumed): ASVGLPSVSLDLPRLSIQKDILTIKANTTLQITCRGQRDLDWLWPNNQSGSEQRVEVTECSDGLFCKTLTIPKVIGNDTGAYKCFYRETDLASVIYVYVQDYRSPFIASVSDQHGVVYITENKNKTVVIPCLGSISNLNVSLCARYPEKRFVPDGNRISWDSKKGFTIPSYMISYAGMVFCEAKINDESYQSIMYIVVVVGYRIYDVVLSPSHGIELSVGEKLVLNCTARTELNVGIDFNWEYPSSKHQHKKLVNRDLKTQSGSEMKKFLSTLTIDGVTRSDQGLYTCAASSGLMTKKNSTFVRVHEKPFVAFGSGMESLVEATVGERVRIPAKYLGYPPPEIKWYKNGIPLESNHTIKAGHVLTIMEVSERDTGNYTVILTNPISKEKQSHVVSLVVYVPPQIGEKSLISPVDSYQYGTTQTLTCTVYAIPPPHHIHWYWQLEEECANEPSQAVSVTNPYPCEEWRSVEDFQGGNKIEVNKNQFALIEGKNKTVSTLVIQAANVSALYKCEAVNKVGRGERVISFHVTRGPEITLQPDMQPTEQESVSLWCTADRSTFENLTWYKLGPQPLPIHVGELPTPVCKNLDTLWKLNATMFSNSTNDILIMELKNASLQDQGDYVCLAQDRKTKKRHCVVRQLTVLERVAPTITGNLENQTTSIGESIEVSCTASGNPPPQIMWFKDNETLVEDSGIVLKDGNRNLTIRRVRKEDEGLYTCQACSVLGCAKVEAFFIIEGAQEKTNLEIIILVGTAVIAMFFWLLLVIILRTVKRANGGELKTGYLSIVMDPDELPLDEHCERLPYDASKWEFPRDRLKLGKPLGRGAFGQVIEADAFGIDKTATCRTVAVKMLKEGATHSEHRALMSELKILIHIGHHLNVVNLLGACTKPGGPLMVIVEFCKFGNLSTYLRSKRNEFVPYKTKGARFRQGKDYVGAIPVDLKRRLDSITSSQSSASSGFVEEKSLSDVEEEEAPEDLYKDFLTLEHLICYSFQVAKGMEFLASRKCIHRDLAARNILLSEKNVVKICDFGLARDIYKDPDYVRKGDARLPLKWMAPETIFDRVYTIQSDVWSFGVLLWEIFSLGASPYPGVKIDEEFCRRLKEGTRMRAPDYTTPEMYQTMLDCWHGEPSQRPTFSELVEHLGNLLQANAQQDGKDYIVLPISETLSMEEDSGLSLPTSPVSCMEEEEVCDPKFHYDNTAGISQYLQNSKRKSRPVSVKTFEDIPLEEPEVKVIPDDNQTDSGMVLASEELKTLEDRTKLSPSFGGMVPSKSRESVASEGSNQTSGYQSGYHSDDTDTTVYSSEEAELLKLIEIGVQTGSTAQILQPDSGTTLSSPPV

B1: PVAM-S (PV R32A), soluble, FLAG and hexahistidine tags (designed binder)
chain: DYKDDDDKIAEPAMIAECHPIETLVDILQEYPDEIGYIFKPSCVPLMRCGGCCNNRNVQCRPTEESNITMQIMRIKPHRGQHIGEMSFLQHNKCRCETVAAGSTSGSGKSSEGKGEVVKFMDVYQRSYCKTRTEVFEISRRLIDATNANFLVWPPCVEVQRCSGCCNHEGLECVPTQVQLRPVQVRKIEFVRKKPIFKKATVTLEDHLACECRPKKDHHHHHH
notes: Secreted from S. cerevisiae YVH10 and treated with Endo Hf
For orientation: Kd means the free concentration of one partner at which half of the binding sites on the other are occupied at equilibrium, for simple one-to-one binding. Low values mean higher affinity, high ones lower affinity. For the molecule B1, in test [1], binding was characterised by a dissociation constant (Kd) of 0.2 nM. For the same molecule, the “fold improvement over the bivalent scVEGFwt” value in test [2] is 7.5 fold.

B2: PV6 PDGF/VEGF chimera, soluble, N-terminal FLAG and C-terminal hexahistidine tags (designed binder)
chain: B1 chain with L28F, G36E, R79Q, R95K, A145R, H168D, F190I, E211K
notes: Secreted from S. cerevisiae YVH10 and treated with Endo Hf; also called soluble PV6
Consider B2, for which the “IC50 of inhibition of HUVEC proliferation induced by 0.5 nM VEGF165, alamarBlue” value in test [3] came out at 110 nM.
